Results reported in publication PMC8884700, “Selection and Modelling of a New Single-Domain Intrabody Against TDP-43” (Frontiers in Molecular Biosciences, 2021).
Substitutions are numbered along the chain they refer to.

Key:
[1] = target: T1, LexA fragment of RRMs (160-208) (Homo sapiens (species of cDNA not …, UniProt Q13148)); experiment: two-hybrid; IACT / in vivo epitope mapping in L40 yeast; LexA-fused bait, VP16-fused VHH prey; growth on SD-WHL (HIS3); liquid beta-gal (LacZ) for the full-length bait; conditions: partners not purified
T1 construct: TDP-43, residues 160-208, containing the linker between RRM1 and RRM2; also called RRMs bait; source: yeast two-hybrid fusion (L40 yeast)
T1 chain: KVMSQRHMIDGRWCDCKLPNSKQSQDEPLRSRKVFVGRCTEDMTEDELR

LexA-RRM2 (192-258) = target: T2, LexA-RRM2 (192-258) (Homo sapiens (species of cDNA not …, UniProt Q13148)); experiment: as above; conditions: partners not purified
T2 construct: TDP-43, RRM2, residues 192-258; also called RRM2 bait; source: yeast two-hybrid fusion (L40 yeast)
T2 sequence (Q13148 192-258): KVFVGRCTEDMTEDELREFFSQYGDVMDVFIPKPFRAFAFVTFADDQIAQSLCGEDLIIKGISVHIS

[2] = target: T3, LexA-N-term + RRM1-2 (residues 1-258) (Homo sapiens (species of cDNA not …, UniProt Q13148)); experiment: as above; conditions: partners not purified
T3 construct: TDP-43, residues 1-258 (N-terminus plus RRM1 and RRM2); also called LexA- N-Term + RRM1-2 (1-258); N-terminal half of TDP-43; source: yeast two-hybrid fusion (L40 yeast)
T3 sequence (Q13148 1-258): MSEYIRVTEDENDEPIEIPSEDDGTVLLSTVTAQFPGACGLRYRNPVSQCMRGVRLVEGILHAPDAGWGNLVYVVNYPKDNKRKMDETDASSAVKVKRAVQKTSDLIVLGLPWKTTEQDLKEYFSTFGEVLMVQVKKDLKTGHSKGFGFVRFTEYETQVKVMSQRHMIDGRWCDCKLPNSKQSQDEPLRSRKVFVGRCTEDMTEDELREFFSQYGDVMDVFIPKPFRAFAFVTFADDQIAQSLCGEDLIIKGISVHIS

[3] = target: T4, LexA-TDP-43 full length (residues 1-414) (Homo sapiens (species of cDNA not …, UniProt Q13148)); experiment: as above; conditions: partners not purified
T4 construct: also called TDP-43 bait; source: yeast two-hybrid fusion (L40 yeast, pMicBD1 bait plasmid)
T4 sequence (Q13148 whole entry, the tested form may be a part): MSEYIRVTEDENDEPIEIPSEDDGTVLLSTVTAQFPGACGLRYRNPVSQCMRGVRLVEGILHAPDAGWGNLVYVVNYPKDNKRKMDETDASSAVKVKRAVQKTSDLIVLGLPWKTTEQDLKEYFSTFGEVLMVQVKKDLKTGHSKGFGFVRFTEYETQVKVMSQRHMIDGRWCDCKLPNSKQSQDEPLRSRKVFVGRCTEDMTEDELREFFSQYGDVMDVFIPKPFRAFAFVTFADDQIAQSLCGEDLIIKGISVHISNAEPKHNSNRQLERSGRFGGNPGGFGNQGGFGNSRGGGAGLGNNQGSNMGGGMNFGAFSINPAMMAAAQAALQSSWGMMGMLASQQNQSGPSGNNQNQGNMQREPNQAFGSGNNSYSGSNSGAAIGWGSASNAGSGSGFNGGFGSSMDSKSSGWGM

purified RRM2 of TDP-43 = target: T5, purified RRM2 of TDP-43 (Homo sapiens, UniProt Q13148); experiment: ELISA; indirect ELISA; TDP-43 fragments coated at 1 uM in carbonate buffer pH 9.6; VHH5 added at 1, 3, 5 and 10 uM, 2 h, room temperature; detected with anti-camelid VHH [HRP]; conditions: both partners purified
T5 construct: TDP-43, RRM2 domain; source: purified
T5 sequence (Q13148 whole entry, looked up, the tested form may be a part): as the sequence (Q13148 whole entry, the tested form may be a part) above

[4] = target: T6, purified RRM1-2 of TDP-43 (tandem RRM domains) (Homo sapiens, UniProt Q13148); experiment: ELISA; sandwich ELISA; VHH5 coated at 1, 3, 5 and 10 uM in carbonate buffer pH 9.6; TDP-43 fragments (10 ug/ml) added in PBS/BSA 1% pH 7.4, 2 h, room temperature; detected with rabbit anti-TDP-43 polyclonal and HRP secondary antibody; conditions: both partners purified
T6 construct: TDP-43, tandem RRM1 and RRM2 domains; Production and limits of the purified construct are not described; The docking used PDB 4bs2 (human TDP-43 tandem RRM1-2) as the putative antigen; source: purified

purified RRM1 of TDP-43 = target: T7, purified RRM1 of TDP-43 (Homo sapiens, UniProt Q13148); experiment: as above; conditions: both partners purified
T7 construct: TDP-43, RRM1 domain; source: purified

Measured: binding result

B1: anti-TDP-43 VHH5 intrabody (VP16 activation domain fusion, prey in pLinker220) (VHH)
VHH: KVQLVESGGGSVQIGGSLRLSCRISEGSGNKYVMAWFRQAPGQEREFVGVISWSGTRTHYADSVRGRFTISRMDNTAYLQMDSLTPDDSGVYYCAASVSVPPFLELTAAHFGSWGQGTQVRVGS
notes: selected from a naive llama VHH SPLINT library; The modelling sections number residues 1-135, with H3 at 94-114; source: yeast two-hybrid fusion (L40 yeast, pLinker220 prey plasmid)
binds: [1] | LexA-RRM2 (192-258) | [2] | [3]

B2: VHH5-I15A_M75K (VHH)
VHH: B1 VHH with I14A, M73K
notes: also called purified VHH5; double mutant; not shown: SUMO, N-terminal, cleaved
binds: purified RRM2 of TDP-43 | [4] | purified RRM1 of TDP-43
